Source: patent publication US20240226230A1 (MAYO FOUNDATION FOR MEDICAL EDUCATION AND RESEARCH, published 2024)

How the values were obtained:
GFP-Nup98 = target: T1, GFP-Nup98 (UniProt P52948 1-880); assay: co-localisation by immunofluorescence in HEK293T cells (FIG. 35)
T1 construct: Bought plasmid; not shown: GFP tag
T1 sequence (looked up): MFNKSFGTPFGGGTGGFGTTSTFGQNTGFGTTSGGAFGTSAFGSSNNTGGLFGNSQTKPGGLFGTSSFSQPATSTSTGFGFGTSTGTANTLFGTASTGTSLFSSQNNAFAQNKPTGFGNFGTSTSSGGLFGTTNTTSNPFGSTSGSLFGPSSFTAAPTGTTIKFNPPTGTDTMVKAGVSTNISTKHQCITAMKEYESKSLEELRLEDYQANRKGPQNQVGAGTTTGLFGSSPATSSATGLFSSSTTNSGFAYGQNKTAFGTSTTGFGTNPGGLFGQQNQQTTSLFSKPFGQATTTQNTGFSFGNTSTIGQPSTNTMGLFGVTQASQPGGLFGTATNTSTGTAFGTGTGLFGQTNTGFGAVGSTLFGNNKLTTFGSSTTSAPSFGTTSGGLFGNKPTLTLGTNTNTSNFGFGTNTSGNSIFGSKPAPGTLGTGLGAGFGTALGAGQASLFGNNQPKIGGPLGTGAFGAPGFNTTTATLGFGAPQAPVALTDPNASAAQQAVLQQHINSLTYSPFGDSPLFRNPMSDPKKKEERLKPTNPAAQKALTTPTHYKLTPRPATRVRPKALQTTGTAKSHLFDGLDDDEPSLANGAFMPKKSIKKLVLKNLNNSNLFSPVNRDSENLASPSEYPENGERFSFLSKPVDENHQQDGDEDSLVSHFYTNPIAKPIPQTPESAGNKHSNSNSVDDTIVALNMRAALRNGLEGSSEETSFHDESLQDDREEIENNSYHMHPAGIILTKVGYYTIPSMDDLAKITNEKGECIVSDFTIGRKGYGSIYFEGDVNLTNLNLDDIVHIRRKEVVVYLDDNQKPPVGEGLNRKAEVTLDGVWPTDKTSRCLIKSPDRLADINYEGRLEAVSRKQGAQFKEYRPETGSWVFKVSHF
Text: FIG. 35: Nup98 strongly associates with TDP-CTF^WT, but not TDP-CTF^VLIM-F and sTDP. […] Arrowheads point to co-aggregation. Hoechst staining was used to outline nuclei. Scale bar: 5 μm.

endogenous Nup62 [1] = target: T2, endogenous Nup62 (human, UniProt P37198 2-522); assay: co-IP, western blot
T2 construct: Detected with anti-Nup62
T2 sequence (looked up): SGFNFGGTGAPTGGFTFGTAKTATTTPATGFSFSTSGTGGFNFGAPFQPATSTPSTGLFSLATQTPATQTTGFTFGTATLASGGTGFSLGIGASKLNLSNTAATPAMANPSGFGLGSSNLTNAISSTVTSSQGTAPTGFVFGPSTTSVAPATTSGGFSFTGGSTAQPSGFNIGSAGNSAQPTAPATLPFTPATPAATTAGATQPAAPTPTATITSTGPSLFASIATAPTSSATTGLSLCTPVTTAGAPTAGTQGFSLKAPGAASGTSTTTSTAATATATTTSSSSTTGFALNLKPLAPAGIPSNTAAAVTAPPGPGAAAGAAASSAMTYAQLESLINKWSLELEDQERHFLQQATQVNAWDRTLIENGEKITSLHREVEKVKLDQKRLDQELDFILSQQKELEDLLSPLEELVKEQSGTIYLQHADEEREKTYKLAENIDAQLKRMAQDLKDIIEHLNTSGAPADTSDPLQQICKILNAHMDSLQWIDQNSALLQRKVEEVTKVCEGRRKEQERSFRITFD
Text: RanGTP and importin-α interact with H1-8 and H8-19, respectively. FG-Nups bind to two regions of KPNB1, H5-7 and H14-16. FIG. 21B) Lysates from HEK293T cells expressing GFP, GFP-KPNB1 full-length (FL), N-terminal fragments of KPNB1 (H1-9 . . . H1) or the C-terminal fragment of KPNB1 (H10-19) were subjected to immunoprecipitation with GFP-Trap magnetic beads. Whole cell lysates (input) and immunoprecipitates (IP) were subjected to western blot analysis using indicated antibodies. KPNB1 H1-8, the smallest fully active KPNB1 fragment in reducing TDP-43 aggregation, strongly interacts with FG-Nups and Ran, and weakly with importin-al in comparison with full-length KPNB1. FIG. 21C) (Top) Schematic domain structure of KPNB1 H1-8^mNIS harboring four missense mutations (1178A, F217A, Y255A, I263R) in the nucleoporin-interacting site (NIS). (Bottom) Lysates from HEK293T cells expressing GFP, GFP-KPNB1 H1-8^WT or H1-8^mNIS were subjected to immunoprecipitation with GFP-Trap magnetic beads. Whole cell lysates (input) and immunoprecipitates (IP) were subjected to western blot analysis using indicated antibodies. […] Hoechst staining was used to outline nuclei. Scale bar: 5 μm. […] FIG. 21G) Quantification of the percentage of cells with cytoplasmic GR aggregates positive for endogenous TDP-43.

Untagged KPNB1 = target: T3, Untagged KPNB1 (Homo sapiens (Human), UniProt Q14974 1-876); assay: GFP-Trap IP from HEK293T lysates, western blot
T3 construct: KPNB1 amplified by PCR and cloned into pEGFP-C1 lacking the GFP tag; also called Wildtype KPNB1
T3 sequence (Q14974 whole entry): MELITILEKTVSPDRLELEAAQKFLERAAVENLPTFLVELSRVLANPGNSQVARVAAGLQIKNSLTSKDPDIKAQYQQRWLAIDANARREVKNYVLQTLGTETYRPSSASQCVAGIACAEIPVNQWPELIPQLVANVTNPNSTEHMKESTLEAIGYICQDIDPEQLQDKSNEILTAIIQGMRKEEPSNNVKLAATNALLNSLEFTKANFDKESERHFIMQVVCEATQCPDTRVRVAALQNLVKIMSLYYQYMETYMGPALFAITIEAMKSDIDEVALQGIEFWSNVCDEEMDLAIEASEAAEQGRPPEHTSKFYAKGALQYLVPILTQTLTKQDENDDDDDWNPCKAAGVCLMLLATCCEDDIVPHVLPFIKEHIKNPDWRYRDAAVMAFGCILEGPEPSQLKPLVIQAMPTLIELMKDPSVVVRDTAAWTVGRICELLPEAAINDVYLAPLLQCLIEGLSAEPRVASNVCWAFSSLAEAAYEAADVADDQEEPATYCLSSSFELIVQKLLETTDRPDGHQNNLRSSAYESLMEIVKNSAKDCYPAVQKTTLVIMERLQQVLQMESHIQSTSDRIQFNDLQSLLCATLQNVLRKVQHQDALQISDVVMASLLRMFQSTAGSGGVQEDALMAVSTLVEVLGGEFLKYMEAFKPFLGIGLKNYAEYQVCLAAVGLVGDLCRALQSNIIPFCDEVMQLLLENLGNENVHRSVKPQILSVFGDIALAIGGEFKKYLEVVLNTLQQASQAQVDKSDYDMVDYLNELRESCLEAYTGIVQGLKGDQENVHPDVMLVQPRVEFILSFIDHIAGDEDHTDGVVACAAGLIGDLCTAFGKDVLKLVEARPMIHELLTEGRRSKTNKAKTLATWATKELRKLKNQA
Text: (§1) FIGS. 29A-29C: Untagged KPNB1 interacts with both the RRM2 and PrLD of TDP-CTF. FIG. 29A) (Left) Lysates from HEK293T cells expressing GFP alone, or untagged KPNB1 with GFP, GFP-TDP-CTF or GFP-TDP43^WT were subjected to immunoprecipitation with GFP-Trap magnetic beads. Whole cell lysates (input) and immunoprecipitates (IP) were subjected to western blot analysis using indicated antibodies. (Right) Quantification of relative KPNB1 levels in IP normalized by KPNB1 levels in input. Statistical analysis was performed using one-way ANOVA and Bonferroni's post hoc test (**p<0.01, ***p<0.001, n=3). […] FIG. 29C) (Left) Lysates from HEK293T cells expressing GFP alone, or untagged KPNB1 with GFP, GFP-TDP-CTF, GFP-TDP-CTF^non-PrLD or GFP-TDP-PrLD were subjected to immunoprecipitation with GFP-Trap magnetic beads. Whole cell lysates (input) and immunoprecipitates (IP) were subjected to western blot analysis using indicated antibodies. (Right) Quantification of relative KPNB1 levels in IP normalized by KPNB1 levels in input. Statistical analysis was performed using one-way ANOVA and Bonferroni's post hoc test (***p<0.001, n=3).
(§2) FIGS. 31A-31C: The PrLD of TDP-43 interacts with FG-Nups and KPNB1. FIG. 31A) Immunofluorescence (IF) of HEK293T cells expressing GFP or GFP-TDP-PrLD and stained for endogenous Nup98 and Nup62. TDP-PrLD forms small cytoplasmic foci positive for Nup62. FIG. 31B) IF of HEK293T cells expressing GFP or GFP-TDP-PrLD and stained for endogenous KPNB1. KPNB1 colocalizes with TDP-PrLD foci in the cytoplasm. Hoechst staining was used to outline nuclei. Scale bar: 5 μm. FIG. 31C) Lysates from HEK293T cells expressing GFP or GFP-TDP-PrLD were subjected to immunoprecipitation with GFP-Trap magnetic beads. Whole cell lysates (input) and immunoprecipitates (IP) were subjected to western blot analysis using indicated antibodies. The PrLD of TDP-43 interacts with Nup62, Nup98 and KPNB1, but not with Ran.
(§3) HEK293T cells were seeded in 6-well plates and transfected for 48 hours. Cells were then lysed in IP Lysis buffer (Fisher) supplemented with a protease inhibitor cocktail (Roche), and were centrifuged at 15000 rpm for 20 minutes at 4° C. A small aliquot of the recovered supernatant was set aside (input).

endogenous Ran = endogenous Ran (human, UniProt P62826 2-216); assay: GFP-Trap IP from HEK293T lysates, western blot
Text: as §1, §2, §3

endogenous Nup98 = target: T4, endogenous Nup98 (human, UniProt P52948 1-880); assay: GFP-Trap IP from HEK293T lysates, western blot
T4 sequence (looked up): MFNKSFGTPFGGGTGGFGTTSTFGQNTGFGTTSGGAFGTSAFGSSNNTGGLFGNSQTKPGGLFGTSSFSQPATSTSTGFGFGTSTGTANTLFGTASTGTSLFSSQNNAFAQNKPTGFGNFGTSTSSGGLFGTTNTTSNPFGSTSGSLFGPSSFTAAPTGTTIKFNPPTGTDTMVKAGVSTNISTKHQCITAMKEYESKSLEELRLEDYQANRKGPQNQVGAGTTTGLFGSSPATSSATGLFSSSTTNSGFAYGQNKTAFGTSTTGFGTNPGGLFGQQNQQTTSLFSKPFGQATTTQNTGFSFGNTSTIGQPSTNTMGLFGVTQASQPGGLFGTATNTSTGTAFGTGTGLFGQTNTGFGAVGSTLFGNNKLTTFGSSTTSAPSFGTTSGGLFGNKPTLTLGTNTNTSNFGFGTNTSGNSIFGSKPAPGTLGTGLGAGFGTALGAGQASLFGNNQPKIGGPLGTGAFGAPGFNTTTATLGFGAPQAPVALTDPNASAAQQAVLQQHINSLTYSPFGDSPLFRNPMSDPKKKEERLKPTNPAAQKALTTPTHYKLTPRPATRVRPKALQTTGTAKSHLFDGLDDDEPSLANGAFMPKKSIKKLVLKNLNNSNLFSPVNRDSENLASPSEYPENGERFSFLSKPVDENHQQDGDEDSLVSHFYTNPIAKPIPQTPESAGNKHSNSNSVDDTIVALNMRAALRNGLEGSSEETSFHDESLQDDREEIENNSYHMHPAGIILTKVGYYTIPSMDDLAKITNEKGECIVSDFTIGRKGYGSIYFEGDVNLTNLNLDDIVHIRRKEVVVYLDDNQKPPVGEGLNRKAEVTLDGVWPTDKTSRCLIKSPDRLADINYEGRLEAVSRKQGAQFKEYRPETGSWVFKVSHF
Text: as §1, §2, §3

endogenous KPNB1 = target: T5, endogenous KPNB1 (human, UniProt Q14974 1-876); assay: co-localisation by immunofluorescence in HEK293T cells (not a direct binding assay)
T5 construct: Endogenous protein detected with anti-KPNB1
T5 sequence (Q14974 whole entry): as the sequence (Q14974 whole entry) above
Text: as §2

endogenous Nup62 [2] = target: T2, endogenous Nup62; assay: as above
Text: as §2

Nup62-mCherry = target: T6, Nup62-mCherry (UniProt P37198 1-522); assay: co-localisation by fluorescence microscopy of co-transfected cells
T6 construct: mCherry replaced GFP in pNup62-EGFP3; also called mCherry-tagged Nup62; not shown: mCherry tag
T6 sequence: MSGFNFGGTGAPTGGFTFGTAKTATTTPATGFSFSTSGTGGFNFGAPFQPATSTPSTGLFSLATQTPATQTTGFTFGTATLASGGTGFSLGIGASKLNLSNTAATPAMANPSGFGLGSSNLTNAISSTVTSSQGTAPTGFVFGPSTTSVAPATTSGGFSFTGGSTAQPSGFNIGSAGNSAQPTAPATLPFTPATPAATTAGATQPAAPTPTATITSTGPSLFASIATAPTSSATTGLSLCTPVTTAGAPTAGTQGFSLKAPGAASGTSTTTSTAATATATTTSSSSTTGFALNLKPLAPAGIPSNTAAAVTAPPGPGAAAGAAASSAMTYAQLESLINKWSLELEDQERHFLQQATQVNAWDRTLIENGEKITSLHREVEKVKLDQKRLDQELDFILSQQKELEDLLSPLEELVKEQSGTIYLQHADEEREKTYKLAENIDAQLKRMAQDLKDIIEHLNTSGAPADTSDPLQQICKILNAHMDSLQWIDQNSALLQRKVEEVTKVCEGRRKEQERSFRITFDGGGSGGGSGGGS

B1: mCherry-TDP-CTF^VLIM-F (other)
chain: GGGSGGGSGGGSREFFSQYGDVMDVFIPKPFRAFAFVTFADDQIAQSLCGEDLIIKGISVHISNAEPKHNSNRQFERSGRFGGNPGGFGNQGGFGNSRGGGAGFGNNQGSNFGGGFNFGAFSFNPAMMAAAQAALQSSWGMMGMLASQQNQSGPSGNNQNQGNFQREPNQAFGSGNNSYSGSNSGAAFGWGSASNAGSGSGFNGGFGSSFDSKSSGWF
notes: also called mCherry-tagged TDP-CTF^VLIM-F; not shown: mCherry tag (mCherry-C1, Clontech)
- binding result (GFP-Nup98): no binding

B2: GFP-KPNB1 H1-8^mNIS (receptor)
chain: GGGSGGGSGGGSMELITILEKTVSPDRLELEAAQKFLERAAVENLPTFLVELSRVLANPGNSQVARVAAGLQIKNSLTSKDPDIKAQYQQRWLAIDANARREVKNYVLQTLGTETYRPSSASQCVAGIACAEIPVNQWPELIPQLVANVTNPNSTEHMKESTLEAIGYICQDIDPEQLQDKSNEILTAIAQGMRKEEPSNNVKLAATNALLNSLEFTKANFDKESERHAIMQVVCEATQCPDTRVRVAALQNLVKIMSLYYQYMETAMGPALFARTIEAMKSDIDEVALQGIEFWSNVCDEEMDLAIEASEAAEQGRPPEHTSKFYAKGALQYLVPILTQTLTKQDENDDDDDWNPCKAAGVCLMLLATCCED
notes: also called KPNB1-mNIS; not shown: GFP/EGFP tag (pEGFP-C1, Clontech)
- binding result (endogenous Nup62 [1]): no binding

B3: GFP-TDP-PrLD (other, human)
chain: GGGSGGGSGGGSRFGGNPGGFGNQGGFGNSRGGGAGLGNNQGSNMGGGMNFGAFSINPAMMAAAQAALQSSWGMMGMLASQQNQSGPSGNNQNQGNMQREPNQAFGSGNNSYSGSNSGAAIGWGSASNAGSGSGFNGGFGSSMDSKSSGWGM
notes: also called GFP-TDP-43 PrLD; TDP-PrLD (aa275-414); not shown: GFP/EGFP tag (pEGFP-C1, Clontech)
- binding result (Untagged KPNB1): binds
- binding result (endogenous Ran): no binding
- binding result (endogenous Nup98): binds
- binding result (endogenous KPNB1): binds
- binding result (endogenous Nup62 [2]): binds

B4: GFP-TDP-43^mNLS 1-265 (other, human)
chain: GGGSGGGSGGGSMSEYIRVTEDENDEPIEIPSEDDGTVLLSTVTAQFPGACGLRYRNPVSQCMRGVRLVEGILHAPDAGWGNLVYVVNYPKDNAAAMDETDASSAVAVAAAVQKTSDLIVLGLPWKTTEQDLKEYFSTFGEVLMVQVKKDLKTGHSKGFGFVRFTEYETQVKVMSQRHMIDGRWCDCKLPNSKQSQDEPLRSRKVFVGRCTEDMTEDELREFFSQYGDVMDVFIPKPFRAFAFVTFADDQIAQSLCGEDLIIKGISVHISNAEPKHN
notes: not shown: GFP/EGFP tag (pEGFP-C1, Clontech)
- binding result (Nup62-mCherry): no binding
